Values belong to the substance of their own block, whether it stands above or below them.
Experiments:
[1] = biological target: human CD47 (hCD47) expressed on cells (human) (UniProt Q08722); assay: flow cytometry, Raji cells
[2] = biological target: human CD47 (hCD47) expressed on cells (human) (UniProt Q08722); assay: flow cytometry, Raji cells, competition with His-hSIRPα
[3] = biological target: N-deglycosylated soluble hCD47-His (PNGase treated) (human); assay: ELISA, one-site binding saturation fit, deglycosylated hCD47
[4] = biological target: hu-sCD47-6His; extracellular domain of human CD47 antigen with 6His-tag (human); assay: SPR Biacore
[5] = biological target: N-deglycosylated soluble hCD47-His (PNGase treated) (human); assay: ELISA, coated N-deglycosylated hCD47-His
[6] = biological target: hu-sCD47-6His; extracellular domain of human CD47 antigen with 6His-tag (human); assay: ELISA, coated glycosylated hCD47-His
[7] = biological target: hu-sCD47-6His; extracellular domain of human CD47 antigen with 6His-tag (human); assay: ELISA, one-site binding saturation fit, glycosylated hCD47

humanized 5F9 (hu5F9; vh2-vl2) (antibody), sequence (VH): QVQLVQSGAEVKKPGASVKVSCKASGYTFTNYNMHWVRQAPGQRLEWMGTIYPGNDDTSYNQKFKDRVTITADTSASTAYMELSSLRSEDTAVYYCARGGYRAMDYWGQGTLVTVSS
humanized 5F9 (hu5F9; vh2-vl2) (antibody), sequence (VL): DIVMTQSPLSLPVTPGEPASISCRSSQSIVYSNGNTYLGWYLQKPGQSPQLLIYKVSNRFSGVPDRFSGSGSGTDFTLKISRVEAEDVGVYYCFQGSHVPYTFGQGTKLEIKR
B6H12 (mouse IgG1, Abcam) (antibody), sequence (VH): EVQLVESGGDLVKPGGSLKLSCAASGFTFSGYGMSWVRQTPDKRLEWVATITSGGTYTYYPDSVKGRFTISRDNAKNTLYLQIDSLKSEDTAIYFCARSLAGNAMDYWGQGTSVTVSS
B6H12 (mouse IgG1, Abcam) (antibody), sequence (VL): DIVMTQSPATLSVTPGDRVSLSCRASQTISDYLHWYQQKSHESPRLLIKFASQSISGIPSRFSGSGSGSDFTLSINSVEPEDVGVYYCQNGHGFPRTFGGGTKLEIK

EC50 [1]: 2.93 µg/mL
Substance: B6H12 (mouse IgG1, Abcam) (antibody)

IC50 [2]: 0.209 µg/mL
Substance: chimeric 5F9 (c5F9) (antibody)

Bmax2 [3]: 1.4 OD value | equilibrium binding constant [3]: 129 pM | Kd [4]: 0.73 nM | EC50 [5]: 0.254 nM | EC95 [5]: 54 nM | EC50 [6]: 0.0547 nM | EC95 [6]: 1.96 nM | Bmax [7]: 2.66 OD value | equilibrium binding constant [7]: 49 pM
Substance: humanized 5F9 (hu5F9; vh2-vl2) (antibody)
